Results published in patent US20060024300A1 (published 2006).
Values belong to the binder of their own block, whether it stands above or below them.

Key:
[1] = target: T1, CD20 (human, UniProt P11836 1-297); assay: cell-based ELISA, WIL2-S cells
T1 construct: whole, on cells; not clear that this entry is the whole human CD20, so it is not used; also called human CD20; CD20 antigen
T1 sequence (looked up): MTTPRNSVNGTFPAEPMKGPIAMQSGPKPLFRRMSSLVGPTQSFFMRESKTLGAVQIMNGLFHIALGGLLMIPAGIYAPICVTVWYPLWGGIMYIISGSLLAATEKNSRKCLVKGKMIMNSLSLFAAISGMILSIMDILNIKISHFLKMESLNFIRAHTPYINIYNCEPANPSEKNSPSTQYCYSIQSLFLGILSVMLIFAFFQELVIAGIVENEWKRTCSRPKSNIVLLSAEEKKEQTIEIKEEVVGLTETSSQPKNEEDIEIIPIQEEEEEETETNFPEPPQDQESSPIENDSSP
Experimental: To measure relative binding affinities to the CD20 antigen, a cell-based ELISA assay was developed. […] The cells were washed with PBS containing 1% FBS (assay buffer) and seeded at 250-300,000 cellwell in 96-well round bottom plates (Nunc, Roskilde, Denmark). […] The plates were buried in ice and incubated for 45 min. To remove the unbound antibody, 0.1 mL assay buffer were added to the wells. Plates were centrifuged and supernatants were removed. Cells were washed two more times with 0.2 mL assay buffer. Antibody bound to the plates was detected by adding peroxidase conjugated goat anti-human Fc antibody (Jackson ImmunoResearch, West Grove, Pa.) to the plates. After a 45 min incubation, cells were washed as described before. TMB substrate (3,3′,5,5′-tetramethyl benzidine; Kirkegaard & Perry Laboratories, Gaithersburg, Md.) was added to the plates. The reaction was stopped by adding 1 M phosphoric acid. Titration curves were fit with a four-parameter nonlinear regression curve-fitting program (KaleidaGraph, Synergy software, Reading, Pa.). The absorbance at the midpoint of the titration curve (mid-OD) and its corresponding concentration of the standard were determined. Then the concentration of each variant at this mid-OD was determined, and the concentration of the standard was divided by that of each variant.

[2] = target: T1, CD20; assay: Scatchard analysis, cold antibody against 125I-2H7.v16 on WIL2-S cells
Experimental: All dilutions were performed in binding assay buffer (DMEM media containing 1% bovine serum albumin, 25 mM HEPES pH 7.2, and 0.01% sodium azide). […] WIL2-S cells (60,000 cells in 0.025 mL) were then added. The plate was sealed and incubated at room temperature for 24 h, then centrifuged for 15 min at 3,500 RPM. The supernatant was then aspirated and the cell pellet was washed and centrifuged. The supernatant was again aspirated, and the pellets were dissolved in 1N NaOH and transferred to tubes for gamma counting.

Relative binding [1]: 0.99 ratio (2H7.v16 conc./variant conc.)
B1: 2H7 version 166 (antibody, human IgG1, kappa, V domains shown)
VH: EVQLVESGGGLVQPGGSLRLSCAASGYTFTSYNMHWVRQAPGKGLEWVGAIYPGNGDTSYNQKFKGRFTISVDKSKNTLYLQMNSLRAEDTAVYYCARVVYYGGDWYFDVWGQGTLVTVSS
VL: DIQMTQSPSSLSASVGDRVTITCRASSSVSYMHWYQQKPGKAPKPLIYAPSNLASGVPSRFSGSGSGTDFTLTISSLQPEDFATYYCQQWSFNPPTFGQGTKVEIKR
notes: IgG1; 2H7.v16 background; Y100b is deleted (empty new residue)

Kd [2]: 1.22 nM
B2: 2H7.v73 (antibody, IgG1)
heavy: not shown
light: DIQMTQSPSSLSASVGDRVTITCRASSSVSYLHWYQQKPGKAPKPLIYAPSNLASGVPSRFSGSGSGTDFTLTISSLQPEDFATYYCQQWSFNPPTFGQGTKVEIKRTVAAPSVFIFPPSDEQLKSGTASVVCLLNNFYPREAKVQWKVDNALQSGNSQESVTEQDSKDSTYSLSSTLTLSKADYEKHKVYACEVTHQGLSSPVTKSFNRGEC
notes: IgG1; 2H7.v16 background

Kd [2]: 1.09 nM
B3: 2H7.v75 (antibody, IgG1)
heavy: EVQLVESGGGLVQPGGSLRLSCAASGYTFTSYNMHWVRQAPGKGLEWVGAIYPGNGDTSYNQKFKGRFTISVDKSKNTLYLQMNSLRAEDTAVYYCARVVYYSASYWYFDVWGQGTLVTVSSASTKGPSVFPLAPSSKSTSGGTAALGCLVKDYFPEPVTVSWNSGALTSGVHTFPAVLQSSGLYSLSSVVTVPSSSLGTQTYICNVNHKPSNTKVDKKVEPKSCDKTHTCPPCPAPELLGGPSVFLFPPKPKDTLMISRTPEVTCVVVDVSHEDPEVKFNWYVDGVEVHNAKTKPREEQYNATYRVVSVLTVLHQDWLNGKEYKCKVSNKALPAPIAATISKAKGQPREPQVYTLPPSREEMTKNQVSLTCLVKGFYPSDIAVEWESNGQPENNYKTTPPVLDSDGSFFLYSKLTVDKSRWQQGNVFSCSVMHEALHNHYTQKSLSLSPGK
light: B2 light
notes: IgG1; 2H7.v16 background
